# Test results published in paper PMC5455435, “Fibrin Hydrogel Based Bone Substitute Tethered with BMP-2 and BMP-2/7 Heterodimers” (Materials, 2015).
# T1: BMP-7 (human, UniProt P18075 293-431)
# T1 construct: Non-glycosylated (made in E. coli); also called BMP-7 monomer; BMP-7 chain of TG-BMP-2/BMP-7
# T1 sequence (looked up): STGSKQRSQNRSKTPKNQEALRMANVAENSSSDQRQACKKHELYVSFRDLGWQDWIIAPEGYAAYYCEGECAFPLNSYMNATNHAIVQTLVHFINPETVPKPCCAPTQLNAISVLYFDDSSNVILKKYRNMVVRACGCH
# Key:
# [1] = molecular target: the molecule itself; assay: SEC; purified monomers refolded at 4 °C in 50 mM Tris pH 8.5, 1 M NaCl, 5 mM EDTA, 2% CHAPS, 2 mM reduced and 1 mM oxidized glutathione; after reverse phase chromatography the dimer was isolated on a HiLoad Superdex 75 column
# BMP-7 = molecular target: T1, BMP-7; assay: non-reduced Western blot with two-colour infrared detection; TG-BMP-2 and BMP-7 monomers combined in equimolar amounts and refolded together, heterodimer purified by heparin affinity, size exclusion and reverse phase chromatography; non-reduced blot probed with anti-BMP-2/4 (700 nm) and anti-BMP-7 (800 nm); overlapping bands indicate the heterodimer; conditions: both partners purified
binding result (BMP-7),Binder,binding result [1]
binds,"TG-BMP-2 (ligand, human, One chain is written; also called engineered BMP-2; TG-BMP-2 monomer) MNQEQVSPLPVELPLIKMKPHQAKHKQRKRLKSSCKRHPLYVDFSDVGWNDWIVAPPGYHAFYCHGECPFPLADHLNSTNHAIVQTLVNSVNSKIPKACCVPTELSAISMLYLDENEKVVLKNYQDMVVEGCGCR",binds
,"BMP-2 (ligand, human, UniProt P12643 283-396, looked up, bone morphogenetic protein 2 (BMP-2), human, active BMP-2 protein only; also called BMP-2 homodimer; regular BMP-2 without the TG site) QAKHKQRKRLKSSCKRHPLYVDFSDVGWNDWIVAPPGYHAFYCHGECPFPLADHLNSTNHAIVQTLVNSVNSKIPKACCVPTELSAISMLYLDENEKVVLKNYQDMVVEGCGCR",binds
